Experimental data reported in paper PMC2871789, “Characterization of the Interaction and Cross-Regulation of Three Mycobacterium tuberculosis RelBE Modules” (PLoS ONE, 2010).

T1: 6xHis-RelF (Rv2865), purified (M. tuberculosis, UniProt O33347 1-93)
T1 construct: also called his-tagged RelF; pET-2865; not shown: His6, N-terminal, kept
T1 sequence: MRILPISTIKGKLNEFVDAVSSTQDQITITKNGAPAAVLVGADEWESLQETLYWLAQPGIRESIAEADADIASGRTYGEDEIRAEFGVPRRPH

T2: GST-RelE (Rv1246c), purified (M. tuberculosis, UniProt O50461 1-97)
T2 construct: the methods state the opposite tagging; also called GST-tagged RelE; pGEX-1246c
T2 sequence: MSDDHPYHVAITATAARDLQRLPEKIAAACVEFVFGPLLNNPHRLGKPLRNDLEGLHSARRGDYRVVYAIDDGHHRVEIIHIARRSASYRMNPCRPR

B1: GST-RelG (Rv2866), purified (natural protein)
chain: MPYTVRFTTTARRDLHKLPPRILAAVVEFAFGDLSREPLRVGKPLRRELAGTFSARRGTYRLLYRIDDEHTTVVILRVDHRADIYRR
notes: also called GST-tagged RelG; pGEX-2866
B2: 6xHis-RelB (Rv1247c), purified (natural protein)
chain: MAVVPLGEVRNRLSEYVAEVELTHERITITRHGHPAAVLISADDLASIEETLEVLRTPGASEAIREGLADVAAGRFVSNDEIRNRYTAR
notes: also called his-tagged RelB; histidine-tagged RelB; not shown: His6, N-terminal, kept

Assays:
[1] = target: T1, 6xHis-RelF (Rv2865), purified; assay: pull-down; details: both partners purified
[2] = target: T2, GST-RelE (Rv1246c), purified; assay: pull-down; details: both partners purified

Binder	binding result [1]	binding result [2]
B1	binds	
B2		binds
